From the supplement of paper PMC7877785
± gives the uncertainty stated by the source.

Assay: self-splicing fitness, log relative to wild type (ln ratio); higher = more splicing; Tetrahymena group I intron in knt gene, E. coli kanamycin selection, DiMSum; sequences stand for … in CUCUCU…GGAGGGAAAAGUUAUCAGGCAUGCACCUGGUAGCUAGUCUUUAAACCAAUAGAUUGCAUCGGUUUAAAAGGCAAGACCGUCAAAUUGCGGGAAAGGGGUCAACAGCCGUUCAGUACCAAGUCUCAGGGGAAACUUUGAGAUGGCCUUGCAAAGGGUAUGGUAAUAAGCUGACGGACAUGGUCCUAACCACGCAGCCAAGUCCUAAGUCAACAGAUCUUCUGUUGAUAUGGAUGCAGUUCACAGACUAAAUGUCGGUCGGGGAAGAUGUAUUCUUCUCAUAAGAUAUAGUCGGACCUCUCCUUAAUGGGAGCUAGCGGAUGAAGUGAUGCAACACUGGAGCCGCUGGGAACUAAUUUGUAUGCGAAAGUAUAUUGAUUAGUUUUGGAGUACUCGUGGUCG
Procedure, shortened: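 DiMSum derived fitness as the error-weighted combination of fold changes across replicates, kanamycin versus no kanamycin, normalised to wild type. E. coli BL21(DE3) held the library, which randomised all eight P1ex-region intron nucleotides within the knt kanamycin-resistance gene on pET-22b(+). Six replicate transformations grew overnight at 37°C or 30°C on LB agar with or without 25 μg/mL kanamycin, also containing 100 μg/mL carbenicillin, 50 μM IPTG and 0.2% rhamnose, and pooled colonies were amplicon-sequenced on an Illumina HiSeq 2500.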

Row | Sequence | self-splicing fitness (ln) (30 °C) | self-splicing fitness (ln) (37 °C)
1 | GGACAGCAAUAUUACGAUUC | -0.338 ± 0.063 | 0.353 ± 0.078
2 | GGACAGCAAUAUUACGCACA | -0.778 ± 0.09 | 0.0888 ± 0.1
3 | GGACAGCAAUAUUACGCAGG | -1.45 ± 0.1 | -0.578 ± 0.11
4 | GGACAGCAAUAUUACGCCCG | -0.653 ± 0.24 | -0.591 ± 0.28
5 | GGACAGCAAUAUUACGCCGU | -4.23 ± 0.46 | -3.05 ± 0.26
6 | GGACAGCAAUAUUACGCGCC | -2.93 ± 0.2 | 
7 | GGACAGCAAUAUUACGCGGA | -0.693 ± 0.081 | 0.416 ± 0.074
8 | GGACAGCAAUAUUACGCGUU | -3.68 ± 0.16 | -2.62 ± 0.2
9 | GGACAGCAAUAUUACGGCAA | -1.32 ± 0.12 | -0.645 ± 0.12
10 | GGACAGCAAUAUUACGGCCA | -0.721 ± 0.077 | -0.225 ± 0.1
11 | GGACAGCAAUAUUACGGGCU | -1.89 ± 0.14 | -0.458 ± 0.13
12 | GGACAGCAAUAUUACGGGGG | -2.84 ± 0.13 | -3.18 ± 0.22
13 | GGACAGCAAUAUUACGUAAU | -0.0161 ± 0.056 | -0.0127 ± 0.07
14 | GGACAGCAAUAUUACGUAGA | -0.242 ± 0.08 | -0.126 ± 0.091
15 | GGACAGCAAUAUUACGUCUA | -0.35 ± 0.081 | -0.114 ± 0.097
16 | GGACAGCAAUAUUACGUGCC | -3.78 ± 0.19 | -2.02 ± 0.21
17 | GGACAGCAAUAUUACGUUAU | -0.282 ± 0.046 | 0.102 ± 0.066
18 | GGACAGCAAUAUUACGUUGC | -4.57 ± 0.24 | -2.83 ± 0.18
19 | GGAGAGCAAUAUUACGAAUU | -3.13 ± 0.49 | -2.27 ± 0.4
20 | GGAGAGCAAUAUUACGAGUU | -4 ± 0.35 | 
21 | GGAGAGCAAUAUUACGAUGC | -2.8 ± 0.33 | -0.975 ± 0.22
22 | GGAGAGCAAUAUUACGCAAG |  | -3.71 ± 0.46

Row | Sequence | self-splicing fitness (ln) (30 °C) | self-splicing fitness (ln) (37 °C)
23 | GGAGAGCAAUAUUACGCUUG | -3.1 ± 0.16 | -2.01 ± 0.21
24 | GGAGAGCAAUAUUACGGAGG | -2.93 ± 0.48 | -0.819 ± 0.23
25 | GGAGAGCAAUAUUACGGCCA | -2.34 ± 0.36 | -1.21 ± 0.35
26 | GGAGAGCAAUAUUACGGGAA | -2.58 ± 0.33 | -2.58 ± 0.38
27 | GGAGAGCAAUAUUACGGGAU | -4.2 ± 0.36 | -3.23 ± 0.35
28 | GGAGAGCAAUAUUACGGGCG | -3.79 ± 0.29 | -2.37 ± 0.26
29 | GGAGAGCAAUAUUACGGGGC | -3.01 ± 0.27 | -2.71 ± 0.44
30 | GGAGAGCAAUAUUACGGGGG |  | -1.49 ± 0.46
31 | GGAGAGCAAUAUUACGGUCU |  | -2.31 ± 0.48
32 | GGAGAGCAAUAUUACGUAAC | -1.69 ± 0.11 | -0.596 ± 0.15
33 | GGAGAGCAAUAUUACGUAGU | -1.91 ± 0.19 | -2.15 ± 0.3
34 | GGAUAGCAAUAUUACGACCU | 0.689 ± 0.32 | 0.93 ± 0.25
35 | GGAUAGCAAUAUUACGCCAG | -2.63 ± 0.32 | -0.526 ± 0.34
36 | GGAUAGCAAUAUUACGCGCG | -1.25 ± 0.13 | 0.793 ± 0.15
37 | GGAUAGCAAUAUUACGCUCU | -1.63 ± 0.26 | 
38 | GGAUAGCAAUAUUACGGGGU |  | -3.01 ± 0.35
39 | GGAUAGCAAUAUUACGGGUU | -2.16 ± 0.096 | -1.42 ± 0.12
40 | GGAUAGCAAUAUUACGUAGC | -3.55 ± 0.2 | -1.06 ± 0.16
41 | GGAUAGCAAUAUUACGUCUA | -0.367 ± 0.087 | -0.516 ± 0.088
42 | GGAUAGCAAUAUUACGUGUG | -1.91 ± 0.12 | -1.19 ± 0.14
43 | GGAUAGCAAUAUUACGUUAC | -1.87 ± 0.12 | -1.26 ± 0.15
44 | GGCAAGCAAUAUUACGAAUA | -1.45 ± 0.079 | -0.797 ± 0.083
